In patent US20240252670A1, “ANTIBODY DRUG CONJUGATE, PREPARATION METHOD THEREFOR AND APPLICATION THEREOF” (TSINGHUA UNIVERSITY, priority 2021, published 2024):

Target: T1, PD-L1 on MC38 cell surfaces (Mus musculus, UniProt Q9EP73)
T1 construct: endogenous in cells; host or cells: MC38 cells
Experiment: FACS detection of antigen-binding capacity on PD-L1 positive MC38 cells (FITC secondary antibody)
Description: MC38 cells were treated with anti-PD-L1 antibody, anti-PD-L1 THIOMAB and ADC HE-S2, and then stained with FITC-labeled goat anti-human secondary antibody; the FITC signal intensity on MC38 surfaces was analyzed by FACS technique detection. A. The histograms of different colors represent, from top to bottom, the fluorescence signals measured for the negative control (NC) group, the secondary antibody group, the anti-PD-L1 antibody group, the anti-PD-L1 THIOMAB group, and the ADC HE-S2 group, respectively. B. Mean fluorescence intensity (MFI) measured after treatment with different antibody-based drugs on MC38. NC group: the negative control only added with the isotype antibody, with no secondary antibody added for staining; secondary antibody group: the control group added with the isotype antibody and stained with fluorescent secondary antibody. […]
With PD-L1 positive MC38 as a platform, the inventors verified whether ADC HE-S2 and the gene-modified anti-PD-L1 THIOMAB retained the original antibody-antigen binding capacity by using a fluorescence activated cell sorting (FACS) technique. […] The stained MC38 cells were analyzed on a BD FACSAria™ III flow cytometer, and the strength of FITC fluorescence signals on MC38 cells treated with different antibody-based drugs was detected and compared, so as to characterize the affinity of ADC, THIOMAB and antibodies to PD-L1.

T1 sequence (Q9EP73 19-290): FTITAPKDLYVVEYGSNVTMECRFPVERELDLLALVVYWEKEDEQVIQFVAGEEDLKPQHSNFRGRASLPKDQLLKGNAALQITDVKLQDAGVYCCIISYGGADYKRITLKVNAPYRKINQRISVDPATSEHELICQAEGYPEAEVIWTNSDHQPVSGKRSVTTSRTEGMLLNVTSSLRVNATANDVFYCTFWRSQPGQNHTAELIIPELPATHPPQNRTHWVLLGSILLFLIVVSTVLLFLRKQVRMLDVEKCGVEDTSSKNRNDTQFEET

## anti-PD-L1 THIOMAB: mutant avelumab, light chain V205C (SEQ ID NO: 9), heavy chain SEQ ID NO: 4; pHrodo red labeled in internalization tests
  MFI compared with the natural anti-PD-L1 antibody (Student's t test): no significant difference
